From patent publication US20120201821A1 (published 2012) come the findings set out here.

Assay [1] addresses T1, human IL-17RE (human, UniProt Q8NFR9 24-667).
T1 construct: Retrovirally expressed on 293 cells or HDFn fibroblasts from human IL17RE cDNA; A possible Flag tag on the construct is not described; also called hIL-17RE
T1 sequence: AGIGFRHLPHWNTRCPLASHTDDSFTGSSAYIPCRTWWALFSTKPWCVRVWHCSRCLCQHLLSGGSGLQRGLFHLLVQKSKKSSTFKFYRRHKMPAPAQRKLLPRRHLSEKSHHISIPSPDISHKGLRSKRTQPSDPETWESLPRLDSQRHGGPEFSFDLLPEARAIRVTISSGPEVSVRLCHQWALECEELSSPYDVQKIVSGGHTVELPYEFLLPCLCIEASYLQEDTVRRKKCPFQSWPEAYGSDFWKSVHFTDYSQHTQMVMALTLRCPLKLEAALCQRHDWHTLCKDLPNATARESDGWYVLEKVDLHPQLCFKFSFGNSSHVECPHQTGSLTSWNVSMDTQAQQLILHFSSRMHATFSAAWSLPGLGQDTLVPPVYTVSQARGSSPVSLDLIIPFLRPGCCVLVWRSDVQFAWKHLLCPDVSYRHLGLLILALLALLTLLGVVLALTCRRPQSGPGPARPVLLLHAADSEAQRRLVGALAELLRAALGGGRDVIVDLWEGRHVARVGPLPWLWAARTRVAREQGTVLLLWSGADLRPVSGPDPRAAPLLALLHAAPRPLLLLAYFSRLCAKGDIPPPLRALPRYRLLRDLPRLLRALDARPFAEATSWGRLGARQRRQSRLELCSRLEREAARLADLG
Put plainly: binding screen on IL-17RE expressing 293 cells.

Another assay addresses T2, human IL-17RA (human, UniProt Q96F46 33-866).
T2 construct: Retrovirally expressed on 293 cells from human IL17RA cDNA (pMSCV-IRES-GFP); Surface expression was confirmed with an anti-Flag antibody, so the construct may carry a Flag tag; not described; also called hIL-17RA
T2 sequence: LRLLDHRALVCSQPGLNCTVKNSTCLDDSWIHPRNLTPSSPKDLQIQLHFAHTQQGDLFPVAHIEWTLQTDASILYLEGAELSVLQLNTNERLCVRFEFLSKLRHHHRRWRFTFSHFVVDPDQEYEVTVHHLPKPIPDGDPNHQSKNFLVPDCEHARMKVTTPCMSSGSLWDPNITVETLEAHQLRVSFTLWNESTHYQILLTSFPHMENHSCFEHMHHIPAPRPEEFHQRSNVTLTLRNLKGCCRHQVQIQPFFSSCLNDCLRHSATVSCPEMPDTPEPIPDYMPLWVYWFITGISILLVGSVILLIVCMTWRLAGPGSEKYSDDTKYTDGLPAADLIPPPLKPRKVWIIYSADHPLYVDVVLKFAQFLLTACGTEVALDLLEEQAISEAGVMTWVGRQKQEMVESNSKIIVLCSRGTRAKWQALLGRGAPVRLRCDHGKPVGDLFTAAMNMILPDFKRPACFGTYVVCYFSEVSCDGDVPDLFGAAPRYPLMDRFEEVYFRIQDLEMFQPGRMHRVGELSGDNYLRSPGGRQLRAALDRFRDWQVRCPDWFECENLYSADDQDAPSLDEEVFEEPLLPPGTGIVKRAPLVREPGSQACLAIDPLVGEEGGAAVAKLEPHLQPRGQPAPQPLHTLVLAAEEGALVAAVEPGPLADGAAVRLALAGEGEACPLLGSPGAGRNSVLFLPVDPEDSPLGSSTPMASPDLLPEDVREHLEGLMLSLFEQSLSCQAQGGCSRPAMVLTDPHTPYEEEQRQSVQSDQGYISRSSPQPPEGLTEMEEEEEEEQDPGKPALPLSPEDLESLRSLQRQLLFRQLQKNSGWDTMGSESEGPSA
Put plainly: radioligand competition binding: 125I-hIL-17C displaced by unlabeled hIL-17C on 293 cells expressing hIL-17RA. As for the experimental part:
(§1) 293 cells expressing the IL-17 receptors were incubated for 2 hours at room temperature with a fixed concentration of iodinated hIL-17C combined with increasing concentrations of unlabeled hIL-17C and including a zero-added, buffer only sample. After the 2-hour incubation, the competition reactions were transferred to a Millipore Multiscreen filter plate and washed 4 times with binding buffer to separate the free from bound iodinated hIL-17C. The filters were counted on a Wallac Wizard 1470 gamma counter and binding data was evaluated using NewLigand software (Genentech), which uses the fitting algorithm of Munson and Rodbard to determine the binding affinity of IL-17C 58.

A further assay concerns the target T3, human IL-17RB (human, UniProt Q9NRM6 18-502).
T3 construct: whole, on cells
T3 sequence (looked up): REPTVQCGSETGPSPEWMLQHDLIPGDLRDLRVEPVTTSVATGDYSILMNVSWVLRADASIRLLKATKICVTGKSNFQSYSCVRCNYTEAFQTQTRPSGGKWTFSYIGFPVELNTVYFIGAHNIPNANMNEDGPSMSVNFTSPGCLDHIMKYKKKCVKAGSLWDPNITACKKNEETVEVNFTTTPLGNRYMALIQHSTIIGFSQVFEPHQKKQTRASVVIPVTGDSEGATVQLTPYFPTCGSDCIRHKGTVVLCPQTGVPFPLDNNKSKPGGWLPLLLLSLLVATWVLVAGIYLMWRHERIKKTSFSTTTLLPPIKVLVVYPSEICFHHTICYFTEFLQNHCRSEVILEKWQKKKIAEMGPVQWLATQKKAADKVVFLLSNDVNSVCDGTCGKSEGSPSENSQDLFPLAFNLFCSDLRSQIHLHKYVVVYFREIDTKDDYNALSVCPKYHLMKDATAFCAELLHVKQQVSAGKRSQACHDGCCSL
Put plainly: flow cytometry, Flag-tagged hIL-17C on 293 cells expressing the receptor, anti-Flag detection. (A flow cytometer gives signals particle by particle.)

In another assay the target is T4, human IL-17RC (human, UniProt Q8NAC3 21-791).
T4 construct: whole, on cells
T4 sequence (looked up): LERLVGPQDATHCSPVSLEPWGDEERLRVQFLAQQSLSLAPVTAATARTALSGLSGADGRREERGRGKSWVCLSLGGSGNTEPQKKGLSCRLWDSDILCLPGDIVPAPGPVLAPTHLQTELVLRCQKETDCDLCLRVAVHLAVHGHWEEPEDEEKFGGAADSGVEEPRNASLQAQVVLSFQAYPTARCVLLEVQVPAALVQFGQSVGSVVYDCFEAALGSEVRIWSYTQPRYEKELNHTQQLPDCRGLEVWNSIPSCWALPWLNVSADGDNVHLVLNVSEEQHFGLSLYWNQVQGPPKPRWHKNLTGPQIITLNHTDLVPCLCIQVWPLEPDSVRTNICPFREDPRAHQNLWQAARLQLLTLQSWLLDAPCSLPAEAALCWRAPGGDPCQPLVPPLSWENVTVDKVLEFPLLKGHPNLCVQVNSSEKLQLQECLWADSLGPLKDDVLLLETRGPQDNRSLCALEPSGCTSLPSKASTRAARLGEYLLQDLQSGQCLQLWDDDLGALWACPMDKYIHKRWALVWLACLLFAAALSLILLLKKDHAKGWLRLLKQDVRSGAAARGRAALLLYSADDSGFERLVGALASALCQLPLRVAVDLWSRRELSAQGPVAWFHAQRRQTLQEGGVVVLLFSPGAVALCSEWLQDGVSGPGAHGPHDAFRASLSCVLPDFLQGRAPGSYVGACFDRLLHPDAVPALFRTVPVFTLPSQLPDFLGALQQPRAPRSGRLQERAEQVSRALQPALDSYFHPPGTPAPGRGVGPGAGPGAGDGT
The assay is described as above.

The target of another assay is T5, human IL-17RD (human, UniProt Q8NFM7 17-739).
T5 construct: whole, on cells
T5 sequence (looked up): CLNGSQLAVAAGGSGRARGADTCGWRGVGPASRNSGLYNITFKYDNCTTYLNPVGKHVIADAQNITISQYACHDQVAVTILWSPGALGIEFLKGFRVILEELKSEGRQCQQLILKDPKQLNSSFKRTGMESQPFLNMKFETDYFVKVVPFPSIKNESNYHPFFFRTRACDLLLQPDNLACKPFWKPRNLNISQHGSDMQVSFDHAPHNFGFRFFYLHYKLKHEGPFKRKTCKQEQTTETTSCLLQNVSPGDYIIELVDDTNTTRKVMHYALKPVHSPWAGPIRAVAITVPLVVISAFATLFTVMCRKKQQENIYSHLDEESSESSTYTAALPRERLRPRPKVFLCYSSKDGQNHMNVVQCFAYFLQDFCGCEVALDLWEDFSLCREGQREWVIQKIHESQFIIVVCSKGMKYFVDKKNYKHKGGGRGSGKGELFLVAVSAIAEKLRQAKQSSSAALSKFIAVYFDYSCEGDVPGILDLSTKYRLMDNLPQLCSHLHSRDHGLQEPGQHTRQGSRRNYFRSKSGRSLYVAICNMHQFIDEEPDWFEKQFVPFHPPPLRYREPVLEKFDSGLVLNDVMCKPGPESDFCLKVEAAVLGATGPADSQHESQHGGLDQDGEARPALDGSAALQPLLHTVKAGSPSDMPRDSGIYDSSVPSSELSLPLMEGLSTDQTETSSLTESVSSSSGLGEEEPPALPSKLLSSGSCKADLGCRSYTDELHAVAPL
The assay is described as above.

For assay [2], the target named is T1, human IL-17RE. Put plainly: radioligand competition binding: 125I-hIL-17C displaced by unlabeled hIL-17C on 293 cells expressing hIL-17RE. As for the experimental part: as §1
(In general: Displacement assays read how much labelled ligand stays bound in the presence of the test substance.)

B1: IL-17F (ligand, UniProt Q96PD4 31-163, looked up)
chain: RKIPKVGHTFFQKPESCPPVPGGSMKLDIGIINENQRVSMSRNIESRSTSPWNYTVTWDPNRYPSEVVQAQCRNLGCINAQGKEDISMNSVPIQQETLVVRRKHQGCSVSFQLEKVLVTVGCTCVTPVIHHVQ
In the case of B1, the binding result in the assay with human IL-17RE [1] is on record as “no binding”.

B2: IL-17B (ligand, UniProt Q9UHF5 21-180, looked up)
chain: QPRSPKSKRKGQGRPGPLAPGPHQVPLDLVSRMKPYARMEEYERNIEEMVAQLRNSSELAQRKCEVNLQLWMSNKRSLSPWGYSINHDPSRIPVDLPEARCLCLGCVNPFTMQEDRSMVSVPVFSQVPVRRRLCPPPPRTGPCRQRAVMETIAVGCTCIF
On to B2, for which the binding result with human IL-17RE [1] was “no binding”.

B3: Flag-tagged mature human IL-17C (His-19 to Val-197) with Gly-77 and Arg-78 substituted to Arg and Thr (ligand)
chain: HHDPSLRGHPHSHGTPHCYSAEELPLGQAPPHLLARGAKWGQALPVALVSSLEAASHRRTHERPSATTQCPVLRPEEVLEADTHQRSISPWRYRVDTDEDRYPQKLAFAECLCRGCIDARTGRETAALNSVRLLQSLLVLRRRPCSRDGSGLPTPGAFAFHTEFIHVPVGCTCVLPRSV
notes: Made in CHO cells as an N-terminal Flag fusion; For the radioligand assay the protein was iodinated (Iodogen); also called hIL-17C; FLAG-tagged hIL-17C; not shown: N-terminal Flag tag
B3: the Kd (usually the free concentration of one partner at which half of the binding sites on the other are occupied at equilibrium, for simple one-to-one binding) was 1400 nM in the assay with human IL-17RA and 0.35 nM in the assay with human IL-17RE [2]. The binding result in the assay with human IL-17RB, with human IL-17RC and in the assay with human IL-17RD was “no binding” each time.

B4: IL-17E (ligand, UniProt Q9H293 33-177, looked up)
chain: YSHWPSCCPSKGQDTSEELLRWSTVPVPPLEPARPNRHPESCRASEDGPLNSRAISPWRYELDRDLNRLPQDLYHARCLCPHCVSLQTGSHMDPRGNSELLYHNQTVFYRRPCHGEKGTHKGYCLERRLYRVSLACVCVRPRVMG
notes: also called IL-25
Consider B4, for which the binding result in the assay with human IL-17RE [1] is “no binding”.
